# Measurements published in the supplement of paper PMC10567573.
# B1: FAM46D (parent)
# chain: LELKFVSSLRRQFEFSVDSFQIVL
# Variants of: B1
# Experiment: protein stability index of a GFP-peptide fusion (GPS, HEK-293T) (PSI 1-6); higher = more stable
# Conditions: c terminus: a fixed tail appended
# 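Also: lentivirally expressed fusions sorted by FACS into six bins by GFP to DsRed ratio, PSI derived from sequencing read proportions per bin multiplied by bin number.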
row,Variant,protein stability index
1,LELKFVSSLRRQFEFSVDSFRIVL,3.02
2,LELKFVSSLRRQFEFSVDSFGIVL,3.02
3,LELKFVSSLRRQFEFSVDSFKIVL,3.44
4,LELKFVSSLRRQFEFSVDSFIIVL,3.59
5,LELKFVSSLRRQFEFSVDSFMIVL,2.78
6,LELKFVSSLRRQFEFSVDSFFIVL,2.74
7,LELKFVSSLRRQFEFSVDSFAIVL,2.85
8,LELKFVSSLRRQFEFSVDSFEIVL,2.47
9,LELKFVSSLRRQFEFSVDSFDIVL,2.69
10,LELKFVSSLRRQFEFSVDSFNIVL,2.75
11,LELKFVSSLRRQFEFSVDSFHIVL,2.63
12,LELKFVSSLRRQFEFSVDSFCIVL,3.58
13,LELKFVSSLRRQFEFSVDSFSIVL,2.89
14,LELKFVSSLRRQFEFSVDSFPIVL,2.71
15,LELKFVSSLRRQFEFSVDSFLIVL,2.24
16,LELKFVSSLRRQFQFSVDSFQIVL,2.24
17,LELKFVSSLRRQFNFSVDSFQIVL,2.89
18,LELKFVSSLRRQFGFSVDSFQIVL,3.4
19,LELKFVSSLRRQFMFSVDSFQIVL,2.77
20,LELKFVSSLRRQFLFSVDSFQIVL,2.84
21,LELKFVSSLRRQFWFSVDSFQIVL,2.46
22,LELKFVSSLRRQFRFSVDSFQIVL,2.17
23,LELKFVSSLRRQFAFSVDSFQIVL,3.98
24,LELKFVSSLRRQFPFSVDSFQIVL,3.67

row,Variant,protein stability index
1,LELKFVSSLRRQFIFSVDSFQIVL,3.52
2,LELKFVSSLRRQFCFSVDSFQIVL,3.17
3,LELKFVSSLRRQFSFSVDSFQIVL,2.66
4,LELKFVSSLRRQFDFSVDSFQIVL,4
5,LELKFVSSLRRQFTFSVDSFQIVL,4.77
6,LELKFVSSLRRQFKFSVDSFQIVL,3.16
7,LELKFVSSLRRQFVFSVDSFQIVL,2.06
8,LELKFVSSLRRQFYFSVDSFQIVL,3.27
9,LELKFVSSLRRQFEFSVCSFQIVL,2
10,LELKFVSSLRRQFEFSVWSFQIVL,3.27
11,LELKFVSSLRRQFEFSVLSFQIVL,2.1
12,LELKFVSSLRRQFEFSVMSFQIVL,4.61
13,LELKFVSSLRRQFEFSVESFQIVL,1.74
14,LELKFVSSLRRQFEFSVPSFQIVL,3.29
15,LELKFVSSLRRQFEFSVISFQIVL,3.49
16,LELKFVSSLRRQFEFSVYSFQIVL,3.18
17,LELKFVSSLRRQFEFSVFSFQIVL,2.06
18,LELKFVSSLRRQFEFSVGSFQIVL,2.54
19,LELKFVSSLRRQFEFSVNSFQIVL,3.43
20,LELKFVSSLRRQFEFSVHSFQIVL,4.76
21,LELKFVSSLRRQFEFSVSSFQIVL,2.94
22,LELKFVSSLRRQFEFSVKSFQIVL,3.6
23,LELKFVSSLRRQFEFSVASFQIVL,4.25
24,LELKFVSSLRRQFEFSVRSFQIVL,3.4

row,Variant,protein stability index
1,LELKFVSSLRRQFEFSVQSFQIVL,3.71
2,LELKFVSSLRRQFEFSVVSFQIVL,3.13
3,LELKFVSSLRRQFEKSVDSFQIVL,2.13
4,LELKFVSSLRRQFEESVDSFQIVL,3.22
5,LELKFVSSLRRQFEHSVDSFQIVL,5.32
6,LELKFVSSLRRQFEWSVDSFQIVL,3.57
7,LELKFVSSLRRQFERSVDSFQIVL,2.68
8,LELKFVSSLRRQFENSVDSFQIVL,4.46
9,LELKFVSSLRRQFEPSVDSFQIVL,2.92
10,LELKFVSSLRRQFEISVDSFQIVL,4.07
11,LELKFVSSLRRQFEQSVDSFQIVL,3.16
12,LELKFVSSLRRQFECSVDSFQIVL,2.42
13,LELKFVSSLRRQFEGSVDSFQIVL,3.1
14,LELKFVSSLRRQFESSVDSFQIVL,3.33
15,LELKFVSSLRRQFEDSVDSFQIVL,2.09
16,LELKFVSSLRRQFEMSVDSFQIVL,2.58
17,LELKFVSSLRRQFETSVDSFQIVL,2.43
18,LELKFVSSLRRQFEVSVDSFQIVL,4.5
19,LELKFVSSLRRQFELSVDSFQIVL,3.69
20,LELKFVSSLRRQFEFAVDSFQIVL,3.32
21,LELKFVSSLRRQFEFCVDSFQIVL,3.91
22,LELKFVSSLRRQFEFVVDSFQIVL,3.91
23,LELKFVSSLRRQFEFTVDSFQIVL,4.1
24,LELKFVSSLRRQFEFIVDSFQIVL,2.93

row,Variant,protein stability index
1,LELKFVSSLRRQFEFKVDSFQIVL,3.51
2,LELKFVSSLRRQFEFRVDSFQIVL,3.43
3,LELKFVSSLRRQFEFFVDSFQIVL,2.79
4,LELKFVSSLRRQFEFYVDSFQIVL,2.83
5,LELKFVSSLRRQFEFMVDSFQIVL,3.57
6,LELKFVSSLRRQFEFHVDSFQIVL,2.69
7,LELKFVSSLRRQFEFNVDSFQIVL,3.05
8,LELKFVSSLRRQFEFPVDSFQIVL,3.75
9,LELKFVSSLRRQFEFDVDSFQIVL,3.15
10,LELKFVSSLRRQFEFEVDSFQIVL,2.89
11,LELKFVSSLRRQFEFSEDSFQIVL,1.91
12,LELKFVSSLRRQFEFSDDSFQIVL,4.26
13,LELKFVSSLRRQFEFSYDSFQIVL,1.51
14,LELKFVSSLRRQFEFSCDSFQIVL,3.37
15,LELKFVSSLRRQFEFSMDSFQIVL,4.44
16,LELKFVSSLRRQFEFSNDSFQIVL,3.45
17,LELKFVSSLRRQFEFSSDSFQIVL,2.19
18,LELKFVSSLRRQFEFSGDSFQIVL,2.62
19,LELKFVSSLRRQFEFSRDSFQIVL,3.4
20,LELKFVSSLRRQFEFSADSFQIVL,2.4
21,LELKFVSSLRRQFEFSFDSFQIVL,2.88
22,LELKFVSSLRRQFEFSPDSFQIVL,2.44
23,LELKFVSSLRRQFEFSTDSFQIVL,2.76
24,LELKFVSSLRRQFEFSIDSFQIVL,2.8

row,Variant,protein stability index
1,LELKFVSSLRRQFEFSLDSFQIVL,3.25
2,LELKFVSSLRRQFEFSHDSFQIVL,3.65
3,LELKFVSSLRRQFEFSWDSFQIVL,4.01
4,LELKFVSSLRRQFEFSKDSFQIVL,2.76
5,LELKFVSSLRRGFEFSVDSFQIVL,2.76
6,LELKFVSSLRRWFEFSVDSFQIVL,3.97
7,LELKFVSSLRRCFEFSVDSFQIVL,1.78
8,LELKFVSSLRRHFEFSVDSFQIVL,2.46
9,LELKFVSSLRRAFEFSVDSFQIVL,4.78
10,LELKFVSSLRRTFEFSVDSFQIVL,2.42
11,LELKFVSSLRRKFEFSVDSFQIVL,3.09
12,LELKFVSSLRRDFEFSVDSFQIVL,2.52
13,LELKFVSSLRRRFEFSVDSFQIVL,2.39
14,LELKFVSSLRRFFEFSVDSFQIVL,2.68
15,LELKFVSSLRREFEFSVDSFQIVL,2.55
16,LELKFVSSLRRYFEFSVDSFQIVL,2.8
17,LELKFVSSLRRSFEFSVDSFQIVL,3.06
18,LELKFVSSLRRNFEFSVDSFQIVL,2.49
19,LELKFVSSLRRVFEFSVDSFQIVL,3.44
20,LELKFVSSLRRMFEFSVDSFQIVL,3.09
21,LELKFVSSLRRPFEFSVDSFQIVL,2.65
22,LELKFVSSLRFQFEFSVDSFQIVL,3.08
23,LELKFVSSLRQQFEFSVDSFQIVL,3.05
24,LELKFVSSLRGQFEFSVDSFQIVL,3.69

row,Variant,protein stability index
1,LELKFVSSLRHQFEFSVDSFQIVL,2.97
2,LELKFVSSLRTQFEFSVDSFQIVL,3.4
3,LELKFVSSLRCQFEFSVDSFQIVL,3.03
4,LELKFVSSLRNQFEFSVDSFQIVL,3.06
5,LELKFVSSLRYQFEFSVDSFQIVL,3.14
6,LELKFVSSLRIQFEFSVDSFQIVL,2.54
7,LELKFVSSLRLQFEFSVDSFQIVL,2.62
8,LELKFVSSLREQFEFSVDSFQIVL,3.47
9,LELKFVSSLRAQFEFSVDSFQIVL,4.7
10,LELKFVSSLRKQFEFSVDSFQIVL,3.21
11,LELKFVSSLRDQFEFSVDSFQIVL,1.97
12,LELKFVSSLRMQFEFSVDSFQIVL,2.27
13,LELKFVSSLRSQFEFSVDSFQIVL,2.99
14,LELKFVSSLRWQFEFSVDSFQIVL,4.32
15,LELKFVSSLYRQFEFSVDSFQIVL,2.17
16,LELKFVSSLVRQFEFSVDSFQIVL,2.04
17,LELKFVSSLWRQFEFSVDSFQIVL,2.01
18,LELKFVSSLRRQFEFSVDNFQIVL,4
19,LELKFVSSLRRQFEFSVDPFQIVL,2.18
20,LELKFVSSLRRQFEFSVDCFQIVL,2.44
21,LELKFVSSLRRQFEFSVDEFQIVL,3.31
22,LELKFVSSLRRQFEFSVDKFQIVL,2.88
23,LELKFVSSLRRQFEFSVDDFQIVL,3.06
24,LELKFVSSLRRQFEFSVDMFQIVL,4.08

row,Variant,protein stability index
1,LELKFVSSLRRQFEFSVDIFQIVL,4.06
2,LELKFVSSLRRQFEFSVDFFQIVL,3.6
3,LELKFVSSLRRQFEFSVDLFQIVL,2.88
4,LELKFVSSLRRQFEFSVDAFQIVL,3.69
5,LELKFVSSLRRQFEFSVDHFQIVL,3.92
6,LELKFVSSLRRQFEFSVDYFQIVL,2.75
7,LELKFVSSLRRQFEFSVDTFQIVL,2.43
8,LELKFVSSLRRQFEFSVDGFQIVL,3.42
9,LELKFVSSLRRQFEFSVDWFQIVL,3.19
10,LELKFVSSLRRQFEFSVDRFQIVL,2.38
11,LELKFVSSLRRQFEFSVDVFQIVL,2.12
12,LELKFVSSLRRQFEFSVDSHQIVL,2.62
13,LELKFVSSLRRQFEFSVDSYQIVL,3.11
14,LELKFVSSLRRQFEFSVDSRQIVL,2.22
15,LELKFVSSLRRQFEFSVDSWQIVL,3.5
16,LELKFVSSLRRQFEFSVDSEQIVL,3.3
17,LELKFVSSLRRQFEFSVDSNQIVL,3.48
18,LELKFVSSLRRQFEFSVDSLQIVL,2.59
19,LELKFVSSLRRQFEFSVDSQQIVL,1.61
20,LELKFVSSLRRQFEFSVDSTQIVL,1.62
21,LELKFVSSLRRQFEFSVDSGQIVL,2.96
22,LELKFVSSLRRQFEFSVDSCQIVL,2.73
23,LELKFVSSLRRQFEFSVDSDQIVL,2.94
24,LELKFVSSLRRQFEFSVDSIQIVL,3.44

row,Variant,protein stability index
1,LELKFVSSLRRQFEFSVDSPQIVL,3.04
2,LELKFVSSLRRQFEFSVDSAQIVL,2.99
3,LELKFVSSLRRQFEFSVDSSQIVL,2.55
4,LELKFVSSLRRQFEFSVDSKQIVL,3.31
5,LELKFVSSLRRQFEFSVDSMQIVL,2.58
6,LELKFVSSLRRQSEFSVDSFQIVL,2.67
7,LELKFVSSLRRQVEFSVDSFQIVL,3.73
8,LELKFVSSLRRQYEFSVDSFQIVL,1.76
9,LELKFVSSLRRQCEFSVDSFQIVL,4.36
10,LELKFVSSLRRQLEFSVDSFQIVL,3.36
11,LELKFVSSLRRQNEFSVDSFQIVL,2.82
12,LELKFVSSLRRQTEFSVDSFQIVL,3.34
13,LELKFVSSLRRQREFSVDSFQIVL,3.23
14,LELKFVSSLRRQDEFSVDSFQIVL,2.54
15,LELKFVSSLRRQQEFSVDSFQIVL,2.84
16,LELKFVSSLRRQHEFSVDSFQIVL,2.73
17,LELKFVSSLRRQEEFSVDSFQIVL,2.55
18,LELKFVSSLRRQKEFSVDSFQIVL,2.91
19,LELKFVSSLRRQIEFSVDSFQIVL,3.87
20,LELKFVSSLRRQWEFSVDSFQIVL,3.64
